According to PMC5932034 (2018):

B1: fused FliS−FliC^C construct (FliC^C fused to the C terminus of FliS) [not stated] / cytoplasmic domain of Salmonella enterica serovar Typhimurium FlhA (FlhA^C) [Salmonella enterica serovar Typhimurium ST313] (parent complex)
chain 1: MYTASGIKAYAQVSVESAVMSASPHQLIEMLFDGANSALVRARLFLEQGDVVAKGEALSKAINIIDNGLKAGLDQEKGGEIATNLSELYDYMIRRLLQANLRNDAQAIEEVERLLSNIAEAWKQISPKASFQESRGTASGAGGSEGGGSEGGTSGATEDSDYATEVSNMSRAQILQQAGTSVLAQANQVPQNVLSLLR
chain 2: SLGMEVGYRLIPMVDFQQDGELLGRIRSIRKKFAQDMGFLPPVVHIRDNMDLQPARYRILMKGVEIGSGDAYPGRWLAINPGTAAGTLPGEKTVDPAFGLDAIWIESALKEQAQIQGFTVVEASTVVATHLNHLIGQFSAELFGRQEAQQLLDRVSQEMPKLTEDLVPGVVTLTTLHKVLQNLLAEKVPIRDMRTILETLAEHAPLQSDPHELTAVVRVALGRAITQQWFPGNEEVQVIGLDTALERLLLQALQGGGGLEPGLADRLLAQTQEALSRQEMLGAPPVLLVNHALRPLLSRFLRRSLPQLVVLSNLELSDNRHIRMTATIGGK
B2: fused FliT−FliD^C construct (FliD^C fused to the N terminus of FliT) [Salmonella enterica serovar Typhimurium ST313] / cytoplasmic domain of Salmonella enterica serovar Typhimurium FlhA (FlhA^C) [Salmonella enterica serovar Typhimurium … (parent complex)
chain 1: GAHMSIDETVARYKAQFTQLDTMMSKLNNTSSYLTQQFTAMNKSGGSGGSGSGGSGGMTSTVEFINRWQRIALLSQSLLELAQRGEWDLLLQQEVSYLQSIETVMEKQTPPGITRSIQDMVAGYIKQTLDNEQLLKGLLQQRLDELSSLIGQSTRQKSLNNAYGRLSGMLLVPDAPGAS
chain 2: B1 chain 2

Variants of: B1
Assay: ITC; parent: 1; read off a plot

Variant | ratio to parent
chain 2 V126G | ~15
chain 2 V121K | ~12
chain 2 I79A | ~10
chain 2 L100A | ~4
chain 2 D95V | ~15

Variants of: B1
Assay: ITC; parent: 1; read off a plot
Remark: another data set of the same source

Variant | ratio to parent
chain 1 V13G | ~6.5

Variants of: B2
Assay: ITC; parent: 1; read off a plot

Variant | ratio to parent
chain 2 E279K | ~5
chain 2 F98A | ~9
chain 2 T129M | ~3.3
chain 2 V121K | ~7
chain 2 I79A | ~6
chain 2 V126G | ~4
chain 2 E279K, chain 2 M280G, chain 2 L281G | ~10
